# Measured values taken from PMC10698284, “SLC3A2 N-glycosylation and Golgi remodeling regulate SLC7A amino acid exchangers and stress mitigation” (The Journal of Biological Chemistry, 2023).
# T1: FLAG-SLC3A2 N365D (human, UniProt P08195-1 66-630, N365D, N-glycosylated; N-glycosylation site N365 deleted)
# T1 construct: SLC3A2 (4F2hc, CD98), human, cDNA encoding amino acids 66 to 630 of isoform P08195-1, with N365D; also called N365D site variant; source: HeLa Flp-In T-REx SLC3A2 KO cells, dox-induced from the Flp-In site; in lysate (AP-MS) or on the cell surface, then lysed (Gal3 co-IP); not shown: FLAG, N-terminal, kept
# T1 sequence (looked up): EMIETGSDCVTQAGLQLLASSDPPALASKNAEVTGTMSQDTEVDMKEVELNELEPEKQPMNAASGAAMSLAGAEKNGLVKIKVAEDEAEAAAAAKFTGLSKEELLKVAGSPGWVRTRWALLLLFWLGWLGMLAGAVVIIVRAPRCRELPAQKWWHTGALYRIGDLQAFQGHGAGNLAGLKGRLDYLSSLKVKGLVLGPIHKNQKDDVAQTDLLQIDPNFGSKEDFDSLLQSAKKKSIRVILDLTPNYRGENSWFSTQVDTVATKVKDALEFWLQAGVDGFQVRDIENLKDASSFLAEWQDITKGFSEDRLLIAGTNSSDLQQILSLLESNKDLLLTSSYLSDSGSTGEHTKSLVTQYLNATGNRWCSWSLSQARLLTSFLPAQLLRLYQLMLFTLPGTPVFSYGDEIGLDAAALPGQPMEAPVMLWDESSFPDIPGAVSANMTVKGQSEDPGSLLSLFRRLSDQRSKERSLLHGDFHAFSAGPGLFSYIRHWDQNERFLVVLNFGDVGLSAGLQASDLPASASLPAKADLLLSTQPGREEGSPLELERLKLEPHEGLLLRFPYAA
# T2: FLAG-SLC3A2 N381D (human, UniProt P08195-1 66-630, N381D, N-glycosylated; N-glycosylation site N381 deleted)
# T2 construct: SLC3A2 (4F2hc, CD98), human, cDNA encoding amino acids 66 to 630 of isoform P08195-1, with N381D; also called N381D site variant; source: HeLa Flp-In T-REx SLC3A2 KO cells, dox-induced from the Flp-In site; in lysate (AP-MS) or on the cell surface, then lysed (Gal3 co-IP); not shown: FLAG, N-terminal, kept
# T2 sequence (looked up): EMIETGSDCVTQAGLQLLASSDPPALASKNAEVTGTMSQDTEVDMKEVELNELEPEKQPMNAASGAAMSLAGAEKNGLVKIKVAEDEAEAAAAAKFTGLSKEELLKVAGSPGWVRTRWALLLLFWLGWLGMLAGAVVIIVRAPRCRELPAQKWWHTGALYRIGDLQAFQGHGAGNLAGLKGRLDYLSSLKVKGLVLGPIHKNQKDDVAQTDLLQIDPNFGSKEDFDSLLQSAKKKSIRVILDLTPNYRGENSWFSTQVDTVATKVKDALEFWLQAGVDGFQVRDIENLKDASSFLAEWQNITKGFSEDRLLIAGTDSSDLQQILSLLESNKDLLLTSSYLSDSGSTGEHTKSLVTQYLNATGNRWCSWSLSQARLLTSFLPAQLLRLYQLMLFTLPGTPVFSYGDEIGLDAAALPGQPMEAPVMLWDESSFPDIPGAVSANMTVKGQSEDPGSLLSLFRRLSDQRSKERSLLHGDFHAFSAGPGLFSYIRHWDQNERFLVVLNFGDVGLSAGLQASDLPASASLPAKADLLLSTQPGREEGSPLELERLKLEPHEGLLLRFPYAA
# B1: SLC7A11 (natural protein, human (endogenous in HeLa), UniProt Q9UPY5 1-501, looked up)
# chain: MVRKPVVSTISKGGYLQGNVNGRLPSLGNKEPPGQEKVQLKRKVTLLRGVSIIIGTIIGAGIFISPKGVLQNTGSVGMSLTIWTVCGVLSLFGALSYAELGTTIKKSGGHYTYILEVFGPLPAFVRVWVELLIIRPAATAVISLAFGRYILEPFFIQCEIPELAIKLITAVGITVVMVLNSMSVSWSARIQIFLTFCKLTAILIIIVPGVMQLIKGQTQNFKDAFSGRDSSITRLPLAFYYGMYAYAGWFYLNFVTEEVENPEKTIPLAICISMAIVTIGYVLTNVAYFTTINAEELLLSNAVAVTFSERLLGNFSLAVPIFVALSCFGSMNGGVFAVSRLFYVASREGHLPEILSMIHVRKHTPLPAVIVLHPLTMIMLFSGDLDSLLNFLSFARWLFIGLAVAGLIYLRYKCPDMHRPFKVPLFIPALFSFTCLFMVALSLYSDPFSTGIGFVITLTGVPAYYLFIIWDKKPRWFRIMSEKITRTLQIILEVVPEEDKL
# notes: SLC7A11, human, endogenous in HeLa cells, found by its tryptic peptides; Forms a disulfide-linked heterodimer with SLC3A2; source: endogenous, HeLa lysate
# B2: SLC7A5 (natural protein)
# chain: not shown
# notes: SLC7A5, human, endogenous in HeLa cells, found by its tryptic peptides; Forms a disulfide-linked heterodimer with SLC3A2; also called SLC7A5 exchanger; source: endogenous, HeLa lysate
# Key:
# [1] = molecular target: T1, FLAG-SLC3A2 N365D; test: affinity purification with mass spectrometry; anti-FLAG M2 agarose, 4 h at 4 °C, 1 mg lysate (0.5% NP40, 50 mM HEPES pH 8.0, 100 mM KCl, 1 mM EDTA, 10% glycerol) of HeLa Flp-In T-REx SLC3A2 KO cells with dox-induced FLAG-SLC3A2 WTseq or site variants; on-bead trypsin digest, DDA and SWATH; control: dox-treated SLC3A2 KO cells; in some samples 10 μM fluvastatin or 250 ng/ml swainsonine for the final 24 h; conditions: partners not purified
# [2] = molecular target: T2, FLAG-SLC3A2 N381D; test: as above; conditions: partners not purified
Binder,percent decrease of the interaction against WTseq [1] [%],percent decrease of the interaction against WTseq [2] [%]
B1,67 ± 15,67 ± 15
B2,44 ± 14,44 ± 14
